Measured values reported in the nanobody polyreactivity screen of Harvey et al. (2022).

Experiment: yeast display, Sf9 membrane polyspecificity reagent, FACS + sequencing; frameworks hold sequencing errors
Outline: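 A nanobody's polyreactivity label depends on the gate it was sorted from. Yeast display cells were stained with 10% biotinylated, detergent-solubilized Sf9 membrane reagent for 1 hour at 4 °C, enriched on streptavidin microbeads and sorted by FACS. The low and high (top ~1%) gates were set on anti-HA fluorescence for expression and streptavidin fluorescence for reagent binding.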

| Sequence | polyreactivity (PSR sort gate) |
| --- | --- |
| QVQLVESGGGLVQAGGSLRLSCAASGRIFLRNAMGWYRPAPGKERELVAGISSIGGITYYADSVKGRFTISRDNAKNTVYLQMNILKPEDTAVYYCAKGLYLHTSGHGPYDYWGQGTQVTVSS | low polyreactivity |
| QVQLVESGGGLVQAGGSLRLSCAASGRIFLRNVMGWYRQAPGKERELVAAISARGGSTYYADSVKGRFTISRDNGKNSVYLQMNSLKPEDTAVYYCAAGYPVSPSKYYYWGQGTQVTVSS | high polyreactivity |
| QVQLVESGGGLVQAGGSLRLSCAASGRIFLRYAMGWYRQAPGKEREFVAAISYVGGSTYYADSVKGRFTISRDNAKNTVYLQMNILKPEDTAVYYCNADVPKSLLLYYPWGYGFWGQRTQVTVSS | low polyreactivity |
| QVQLVESGGGLVQAGGSLRLSCAASGRIFLTNAMGWYRQAPGKERELVAAITSGGSTYYADSVKGRFTISRDNAKNTVYLQMNSLKPEDTAVYYCNADTDRYWPYEYDYWGQGSQVTVSS | low polyreactivity |
| QVQLVESGGGLVQAGGSLRLSCAASGRIFLVYAMGWYRQAPGKERELVAAIRSGGSTYYADSVKGRFTISRDNAKNTVYLQMNSLKPEVTAVYYCIADSPWYWVRYGVSRRDYWGQGTQVTVSS | low polyreactivity |
| QVQLVESGGGLVQAGGSLRLSCAASGRIFLWYAMGWYRKAPGKERELVADISSNGGSTRYADSVKGRFAISRDNEKNTVYLQMNILKPEDTAVYYCNADVHWNRYRYGGNGYGYWGQGTQVTVSS | low polyreactivity |
| QVQLVESGGGLVQAGGSLRLSCAASGRIFLWYAMGWYRQAPGKERELVASITRSGVTTYYADSVKGRFTISRDNAKNTVYLQMKSLKPEDTAVYYCNKDFRGDAIKLDVNYWGQGTQVTVSS | low polyreactivity |
| QVQLVESGGGLVQAGGSLRLSCAASGRIFLYNAMGWYRQAPGKERELVAVISSNGGRTYYADSVKGRFTISRDNAKNTVYLQMNSLKPEDTAVYYCAAVQHYVTHMDYWGQGTQVTVSS | low polyreactivity |
| QVQLVESGGGLVQAGGSLRLSCAASGRIFLYNTMGWYRQAPGKERELVARISWSGGSTKYADSVKGRFTISRDNAKNTVYLQMNSLKPEDTAVYYCNAGYFTEYNSWGQGTQVTVSS | high polyreactivity |
| QVQLVESGGGLVQAGGSLRLSCAASGRIFLYYAMGWYRQAPGKERELVATISSGGSTHYADSVKGRFTISRDNAKNTVYLQMNSLKPEDTAVYYCAAYGYGWGLEPSTTEMDYWGQGTQVTVSS | low polyreactivity |
| QVQLVESGGGLVQAGGSLRLSCAASGRIFLYYTMGWYRQAPGKERELDAAITRSGGSTYYADSVKGRFTISRDNAKNTVYLQMNSLKPEDTAVYYCNRAYVRYVPMNYWGQGTQVTVSS | high polyreactivity |
| QVQLVESGGGLVQAGGSLRLSCAASGRIFNAYAMGWYRQAPGKERELVAAISSIGGRTYYADSVKGRFTISRDNAKNTDYLQMNSLKPEDTAVYYCAASRRSRQYRYDYWGQGTQVTVSS | high polyreactivity |
| QVQLVESGGGLVQAGGSLRLSCAASGRIFNFYAMGWYRQAPGKERELVAAITRGGSTYYADSVKGRFTISRDNAKNTVYLQMNSLKPEDTAVYYCNALNRYYDGDYYYWGQGTQVTVSS | high polyreactivity |
| QVQLVESGGGLVQAGGSLRLSCAASGRIFNGYAMGWYRQAPGKERELVAAITTSGGSTYYADSVKGRFTISRDNAKNTVYLQMNSLKPEDTAVYYCAKYYPRYAYDYWGQGTQVTVSS | low polyreactivity |
| QVQLVESGGGLVQAGGSLRLSCAASGRIFNHNDMGWYRQAPGKERELVAAIDGSDSSTYYADSVKGRFTISRDNAKNTVYLQMNSLKTEDTAVYYCNADTNWLYTTGKYDYWGQGTQVTVSS | low polyreactivity |
| QVQLVESGGGLVQAGGSLRLSCAASGRIFNIYAMGWYRQAPGKERELVAAIRGRGGSTYYADSVKGRFTISRDNAKNTVYLQMNSLKPEDTAVYYCAADSGPFYSKTQTRYGYWGQGTQVTVSS | high polyreactivity |
| QVQLVESGGGLVQAGGSLRLSCAASGRIFNIYAMGWYRQAPGKERELVAAISGSGGRTSYADSVKGRFTISRDNAKNTVYLQMNSLKPEDTAVYYCAADYSYYTSFRYDYWGQGTQVTVSS | low polyreactivity |
| QVQLVESGGGLVQAGGSLRLSCAASGRIFNLYAMGWYRQAPGKERELVAAISYSGGRTYYADSVKGRFTISRDNAKNTVYLQMNSLKPEDTAVYYCNTVRGSVRQAGVGYDYWGQGTQVTVSS | high polyreactivity |
| QVQLVESGGGLVQAGGSLRLSCAASGRIFNLYAMGWYRQAPGKERELVAGIRWSTGSTYYADSVKGRFTISRDNAKNTVYLQMNSLKPEDTAVDYCAVRYYCSGRYYYTYYSWGQGTLVTVSS | high polyreactivity |
| QVQLVESGGGLVQAGGSLRLSCAASGRIFNPNGMGWYRQAPGKERELVAVITRSGTSTYADSVKGRFTISRDNAKNTVYLQMNSLKPEDTAVYYFATRYRWTPYDYWGQGTQVTVSS | low polyreactivity |
| QVQLVESGGGLVQAGGSLRLSCAASGRIFNPYVMGWYRPAPGKERELVAAISSGGRTYYADSVKGRFTISRDNAKNTVYLQMNSLKPEDTTVYYCAREQYRRYSGYGYWGQGTQVTVSS | high polyreactivity |
| QVQLVESGGGLVQAGGSLRLSCAASGRIFNQYCMGWYRQAPGKERELVAAIRSGDSTNYADSVKGRFTISRDNAKNTVYLQMNSLKPEDTAVYYCARDRPGDYAGYDYWGQGTQVTVSS | low polyreactivity |

| Sequence | polyreactivity (PSR sort gate) |
| --- | --- |
| QVQLVESGGGLVQAGGSLRLSCAASGRIFNQYGMGWYRQAPGQEMELVAAIRSGDSTNYADSVKGRFTISRDNAKNTVYLQMNSLKPEVTAVYYCARDRPGDYAGYDYWGQGTEVTVSS | low polyreactivity |
| QVQLVESGGGLVQAGGSLRLSCAASGRIFNRNAMGWYRQAPGKERELVAAITRGGRTNYADSVKGRFTISRDNAQNTVYLQMNSLKPEDTAVYYCAAAYYGSHGRYDYWVQGTQVTVSS | high polyreactivity |
| QVQLVESGGGLVQAGGSLRLSCAASGRIFNRNVMGWYRQAPGKERELVAAISYGTGSTYYADSVKGRFTISRDNAKNTVYLQMNSLKPEDTAVYYCATRYRVRDDGEYDYWGHGTQVTVSS | high polyreactivity |
| QVQLVESGGGLVQAGGSLRLSCAASGRIFNRYAMGLYSQAPGKERELVAAISYTGGRTYYADSVKGRFTISRDNAKNTVYLQRNCLTPEDTAVYYCNVYVIHWDFTTSSVRRFDYWGQGTQVNVSS | high polyreactivity |
| QVQLVESGGGLVQAGGSLRLSCAASGRIFNRYGMGWYRQAPGKERELVAAITWRGGNTYYADSVKGRFTISRDNAKNTVYLQMNSLKPEDTAVYYCAADGGYSAYFGAYDYWGQGTQVTVSS | high polyreactivity |
| QVQLVESGGGLVQAGGSLRLSCAASGRIFNSNTMGWYRQAPGKERELVAAITYSGGSTYYADSVKGRFSISRDNAKNTVYLQMNSLKPEDTAVYYCAASYYYGRRYDYWGQGTQVTVSS | low polyreactivity |
| QVQLVESGGGLVQAGGSLRLSCAASGRIFNSYAMGWYRQAPGKERELVAAISSGGSTYYADSVKGRFTFSRDNAKNTVYLQMNSLKPEDTAVYYCADRIWTGRGRKLGYGYDYWGQGTQVTVSS | low polyreactivity |
| QVQLVESGGGLVQAGGSLRLSCAASGRIFNVNALGWYRQAPGKERELVAAINWSGGRTYYADSVKGRFTISRDNAKNTVYLQLNSLKPEDTAVYYCAADTRYPYRAYDYWGQGTQVTVAS | high polyreactivity |
| QVQLVESGGGLVQAGGSLRLSCAASGRIFNVYAMGWYRQAPGKERELVASITSAGSTYYADSVKGRFTISRDNAKITVYLQMNSLKPEDTAVYYCAADSYSVYYYTYDSWGQGTQVTVSS | low polyreactivity |
| QVQLVESGGGLVQAGGSLRLSCAASGRIFNVYAMGWYRQAPGKERELVASITSAGSTYYADSVKGRFTISRDNAKNTVYLQMNSLKPEDTPVYDCAADSYSVYYYTYDSWGQGTQVTVSS | low polyreactivity |
| QVQLVESGGGLVQAGGSLRLSCAASGRIFNYNAMGWYRQAPGKEREFVATISGRAGRTYYADSVKGRFTISRDNAKNTVYLQMNSLKPEDTAVYYCNAGQWRYPGLYYYWGQGTQVTVSS | high polyreactivity |
| QVQLVESGGGLVQAGGSLRLSCAASGRIFNYYAMGWYRQAPGKERELVAAINSGGSTYADSVKGRFTISRDNAKNTVYLQMNSLKPEDTAVYYSAKDGQLQSGRERPSGYDHWGQGTQVTVSS | low polyreactivity |
| QVQLVESGGGLVQAGGSLRLSCAASGRIFPDNTLGWYRQAPGKERELVAVITYSGGSTYYADSVKGRFTISRDNAKNTVYLQMNSLKPEDTAVYYCAARDYYIWFAEVDSWGQGTQVTVSS | low polyreactivity |
| QVQLVESGGGLVQAGGSLRLSCAASGRIFPGNAMGGYRQAPGKERELVATISRIGGSTYADSVKGRFTISRDNAKNTVYLQMNSLKPEDTAVYYCAKTWVSRDVEYDYWGQGTQVTVSS | low polyreactivity |
| QVQLVESGGGLVQAGGSLRLSCAASGRIFPGNAMGWYRQAPGKEREFVAAINTRGGITYYADSVKGRFTISRDNAKNTVYLQMNSLKPEDTAVYYCARTYYPVDGEYDYWGQGTQVTVSS | low polyreactivity |
| QVQLVESGGGLVQAGGSLRLSCAASGRIFPGYAMGWYRQAPGKERELVAAISGSGVRTYYADSVKGRFTISRDNAKNTFYLQMNSLKPEDTAVYYCAADSKIRTKLDYWGQGTQVTVSS | low polyreactivity |
| QVQLVESGGGLVQAGGSLRLSCAASGRIFPGYAMGWYRQAPGKERELVAGITWRTARTYYADSVKGRFTISRDNAKNTVYLQMNSLKPEDTAVYYCAAKYARYGRHVIFDYWGQGTQVTVSS | high polyreactivity |
| QVQLVESGGGLVQAGGSLRLSCAASGRIFPGYAMGWYRQAPGKERELVASIRWSGDSTYYADSVKGRFTISRDNAKNTVYLQMNSLKPEDTAVYYCNRRWYRGDYWGQGTQVTVSS | low polyreactivity |
| QVQLVESGGGLVQAGGSLRLSCAASGRIFPHYAMGWYRQAPGKERELVAAISRSGVSTYYADSVKGRFTISRDNAKNTVYLQMNSLKPEDTAVYYCNIVRYSFLYSVTYNYWGQGTQVTVSS | high polyreactivity |
| QVQLVESGGGLVQAGGSLRLSCAASGRIFPLYTMGWYRQAPGKERELVAAITSIGGSTYYADSVKGRFTISRDNAKNTVYLQMNSLKPEDTAVYYCNAQYRPLTSWYKMDYWGQGTQVTVSS | high polyreactivity |
| QVQLVESGGGLVQAGGSLRLSCAASGRIFPNAMGWYRQAPGKERELVAAISWSGVTTTYADSVKGRFTISRDNAKNTVYLQMNSLKPEDTAVYYCAARYWAYGYWGQGTQVTVSS | high polyreactivity |
